# Laboratory results from US12692310B2, “ASIC1 channel antagonist antibody” (ShanghaiTech University, priority 2019, dated 2026).
# T1: ΔhASIC1a (Homo sapiens, UniProt P78348)
# T1 construct: A truncated ASIC1a (amino acids 13-464; ΔhASIC1a) was overexpressed and purified; made in house; host or cells: HEK293F (BacMam baculovirus)
# T1 sequence (P78348 13-464): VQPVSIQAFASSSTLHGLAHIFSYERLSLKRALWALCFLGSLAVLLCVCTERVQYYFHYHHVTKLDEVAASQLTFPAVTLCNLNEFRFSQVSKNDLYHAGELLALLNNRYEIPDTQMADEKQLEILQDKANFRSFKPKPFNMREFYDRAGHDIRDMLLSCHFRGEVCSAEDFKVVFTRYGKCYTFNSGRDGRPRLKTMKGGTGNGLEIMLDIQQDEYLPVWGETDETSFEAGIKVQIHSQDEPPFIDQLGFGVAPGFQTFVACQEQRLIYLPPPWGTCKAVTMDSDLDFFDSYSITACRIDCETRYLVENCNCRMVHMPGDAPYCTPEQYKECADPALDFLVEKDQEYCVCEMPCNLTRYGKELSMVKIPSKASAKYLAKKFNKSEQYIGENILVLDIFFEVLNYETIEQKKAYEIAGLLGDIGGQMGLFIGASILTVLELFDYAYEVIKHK
# T2: hASIC1a-eYFP (Homo sapiens, UniProt P78348)
# T2 sequence (P78348 1-528): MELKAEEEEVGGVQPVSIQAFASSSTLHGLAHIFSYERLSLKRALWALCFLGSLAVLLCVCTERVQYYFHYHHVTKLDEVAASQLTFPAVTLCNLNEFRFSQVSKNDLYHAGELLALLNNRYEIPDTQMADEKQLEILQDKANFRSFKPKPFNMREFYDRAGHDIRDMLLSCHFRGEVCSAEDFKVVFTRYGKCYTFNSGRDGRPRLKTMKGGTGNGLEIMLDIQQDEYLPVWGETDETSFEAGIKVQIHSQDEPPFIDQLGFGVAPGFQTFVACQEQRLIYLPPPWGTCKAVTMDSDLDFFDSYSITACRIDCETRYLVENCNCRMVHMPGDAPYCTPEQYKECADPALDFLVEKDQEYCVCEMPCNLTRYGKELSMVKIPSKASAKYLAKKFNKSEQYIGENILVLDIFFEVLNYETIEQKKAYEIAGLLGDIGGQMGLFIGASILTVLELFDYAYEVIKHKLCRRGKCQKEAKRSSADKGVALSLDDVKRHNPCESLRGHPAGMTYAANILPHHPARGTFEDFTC
# Columns and labels:
# ΔhASIC1a = biological target: T1, ΔhASIC1a; assay: Biacore SPR binding affinity, single cycle kinetic model; settings: Biacore T200, purified ΔhASIC1a protein, read-out: apparent KD / binding affinity to ΔhASIC1a
# Procedure: Surface plasmon resonance (SPR) and flow cytometry were used to study the interaction between the monoclonal antibody and hASIC1a. SPR-binding studies were performed on a Biacore T200 (GE Healthcare). The anti-Flag antibody was amine coupled to the surface of a biosensor chip CM5 series S (GE Healthcare). The recombinant Flag-tagged ΔhASIC1a was then immobilized onto the chip surface. […] The kinetics of binding/dissociation was measured as a change in the SPR signal resonance units. Apparent binding affinities were calculated using the Biacore T200 evaluation software with a single-cycle kinetic model.
# hASIC1a-eYFP = biological target: T2, hASIC1a-eYFP; assay: Species/subtype selectivity, FACS binding and ICC, transfected CHO-K1 cells; format: cell-based; set-up: overexpress the full-length hASIC1a (1-528 amino acids) protein fused with eYFP; expressed in transfected cells; host or cells: CHO-K1, transient
# Procedure: Cell Membrane Colocalization Studies Using Immunocytochemistry (ICC). Cells (CHO-K1) were seeded onto the poly-D-lysine-coated glass bottom 24-well plates at a concentration of 2×10^5 cells per mL. After 12 h of cultivation, the CHO-K1 cells were transfected with ASIC plasmids by Lipofectin 3000 reagent. Twenty-four hours after transfection, the cells were fixed in 4% paraformaldehyde and incubated for 30 min in a blocking solution (5% goat serum in PBS). The resulting cells were incubated with […] ASC06-IgG1 at 4° C. overnight followed by three PBS washes for 5 min each and incubation with the Alexa555-conjugated goat anti-human secondary antibody (Life Technology). After three additional PBS washes for 5 min each, the nuclei of the cells were stained with DAPI (#10236276001; Roche). The ICC analysis was performed on a laser scanning confocal microscopy (ZEISS LSM710) with a 63×N.A. 1.4 objective at 25° C. Images were collected on a 1,024×1,024-pixel EM-CCD camera. […]
# To test the species and subtype selectivity of ASC06-IgG1, vectors encoding human ASIC1b-eYFP fusion, rat ASIC1a-eYFP fusion, mouse ASIC1a-eYFP fusion, hASIC2a-eYFP fusion, hASIC2b-eYFP fusion, and hASIC3a-eYFP fusion were constructed. […] FACS binding assay and immunocytochemistry (ICC) were carried out to determine if ASC06-IgG1 is able to bind to the cell surface-expressed ASIC homologs and isotypes.
molecule,measurement,setting,value
"ASC06-IgG1: ASC06 antibody converted into a full length IgG1 form (antibody, V domains shown) VH: QVQLQQSGGGLVQPGGSLRLSCAASGFTFSSYAMSWVRQAPGKGLEWVSAISGSGGSTYYADSVKGRFTISRDNSKNTLYLQMNSLRAEDTAVYYCAKDSFYGYSKGDWGQGTLVTVSS VL: QSALTQPASVSGSPGQSITISCTGTSSDVGAYNYVSWYQQQPGKAPKLMIYGVSNRPSGVSNRFSGSKSGNAASLTISGLQAEDEADYYCSSYTSSSTYVFGTGTKLTVLG",Kd,ΔhASIC1a,7.9 nM
same,FACS recognition of human ASIC1a,hASIC1a-eYFP; FACS,recognized
same,ICC membrane co-localization with hASIC1a-eYFP,hASIC1a-eYFP; ICC staining,membrane co-localization
